Measurements as given in paper PMC9482650, “Quantitative fragmentomics allow affinity mapping of interactomes” (Nature Communications, 2022).

Legend:
Test in all cases: holdup assay
Design in all cases: key: below the threshold = too weak to quantify, mostly under pKd 3.1 to 4
NHERF4_4, Q86UT5 = biological target: NHERF4_4, Q86UT5
GRIP1_5, Q9Y3R0 = biological target: T1, GRIP1_5, Q9Y3R0
T1 sequence (Q9Y3R0 568-668, limits assumed, looked up): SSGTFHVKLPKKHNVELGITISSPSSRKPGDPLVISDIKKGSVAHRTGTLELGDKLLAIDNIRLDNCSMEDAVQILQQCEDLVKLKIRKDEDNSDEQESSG

DLG3_2, Q92796 = biological target: T2, DLG3_2, Q92796
T2 sequence (Q92796 221-321, limits assumed, looked up): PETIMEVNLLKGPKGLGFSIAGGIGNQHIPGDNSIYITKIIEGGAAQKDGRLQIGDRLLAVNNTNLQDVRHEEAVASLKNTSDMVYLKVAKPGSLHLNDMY

GORASP1, Q9BQQ3 = biological target: GORASP1, Q9BQQ3
Chain of GORASP1, Q9BQQ3 (Q9BQQ3 1-208): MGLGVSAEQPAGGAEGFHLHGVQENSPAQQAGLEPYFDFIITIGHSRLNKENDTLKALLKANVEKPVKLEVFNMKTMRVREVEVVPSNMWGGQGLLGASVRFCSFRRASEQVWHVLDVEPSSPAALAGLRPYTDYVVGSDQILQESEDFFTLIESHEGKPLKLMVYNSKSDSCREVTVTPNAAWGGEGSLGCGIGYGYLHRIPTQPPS

MAGI2_2, Q86UL8 = biological target: MAGI2_2, Q86UL8
Chain of MAGI2_2, Q86UL8 (Q86UL8 410-522): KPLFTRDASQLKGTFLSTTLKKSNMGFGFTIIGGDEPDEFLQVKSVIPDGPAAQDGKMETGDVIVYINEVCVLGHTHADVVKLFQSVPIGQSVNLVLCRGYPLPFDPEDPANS

TJP3_3, O95049 = biological target: T3, TJP3_3, O95049
T3 sequence (O95049 375-456, limits assumed, looked up): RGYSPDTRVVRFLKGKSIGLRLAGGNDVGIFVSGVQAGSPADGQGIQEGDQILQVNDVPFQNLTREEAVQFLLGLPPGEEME

Inadl_5, Q8NI35 = biological target: Inadl_5, Q8NI35
Chain of Inadl_5, Q8NI35 (Q8NI35 673-780): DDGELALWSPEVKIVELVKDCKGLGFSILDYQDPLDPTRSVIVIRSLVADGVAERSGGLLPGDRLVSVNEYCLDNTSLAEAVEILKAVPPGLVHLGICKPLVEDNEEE

HTRA1, Q92743 = biological target: HTRA1, Q92743
Chain of HTRA1, Q92743 (Q92743 360-477): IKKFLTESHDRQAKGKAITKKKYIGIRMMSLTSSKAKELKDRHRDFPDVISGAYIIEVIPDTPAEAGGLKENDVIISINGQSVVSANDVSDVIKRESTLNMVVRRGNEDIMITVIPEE

SIPA1L2, Q9P2F8 = biological target: T4, SIPA1L2, Q9P2F8
T4 sequence (Q9P2F8 945-1036, limits assumed, looked up): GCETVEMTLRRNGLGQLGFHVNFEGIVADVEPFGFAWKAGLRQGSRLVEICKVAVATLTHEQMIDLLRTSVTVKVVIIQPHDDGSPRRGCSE

HTRA2, O43464 = biological target: HTRA2, O43464
Chain of HTRA2, O43464 (O43464 355-458): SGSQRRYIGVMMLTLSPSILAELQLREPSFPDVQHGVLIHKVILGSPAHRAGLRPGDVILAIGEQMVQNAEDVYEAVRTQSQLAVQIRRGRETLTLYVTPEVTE

FRMPD2_3, Q68DX3 = biological target: FRMPD2_3, Q68DX3
Chain of FRMPD2_3, Q68DX3 (Q68DX3 1073-1166): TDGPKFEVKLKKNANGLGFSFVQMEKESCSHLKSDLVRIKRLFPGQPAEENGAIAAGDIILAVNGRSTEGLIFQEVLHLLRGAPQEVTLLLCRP

GRIP1_4, Q9Y3R0 = biological target: T5, GRIP1_4, Q9Y3R0
T5 sequence (Q9Y3R0 467-571, limits assumed, looked up): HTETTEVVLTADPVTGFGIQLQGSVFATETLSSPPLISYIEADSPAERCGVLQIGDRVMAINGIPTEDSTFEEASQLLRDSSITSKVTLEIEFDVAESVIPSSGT

TJP1_3, Q07157 = biological target: TJP1_3, Q07157
Chain of TJP1_3, Q07157 (Q07157 416-512): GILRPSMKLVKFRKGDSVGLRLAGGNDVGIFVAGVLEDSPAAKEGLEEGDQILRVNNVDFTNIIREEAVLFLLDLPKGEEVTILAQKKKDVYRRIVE

FRMPD4, Q14CM0 = biological target: FRMPD4, Q14CM0
Chain of FRMPD4, Q14CM0 (Q14CM0 67-160): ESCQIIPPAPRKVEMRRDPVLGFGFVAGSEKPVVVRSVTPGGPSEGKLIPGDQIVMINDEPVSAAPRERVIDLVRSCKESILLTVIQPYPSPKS

IL16_3, Q14005 = biological target: IL16_3, Q14005
Chain of IL16_3, Q14005 (Q14005 1107-1207): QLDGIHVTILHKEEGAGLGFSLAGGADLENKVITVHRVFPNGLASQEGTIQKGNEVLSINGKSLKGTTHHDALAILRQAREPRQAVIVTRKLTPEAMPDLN

Inadl_3, Q8NI35 = biological target: Inadl_3, Q8NI35
Chain of Inadl_3, Q8NI35 (Q8NI35 359-469): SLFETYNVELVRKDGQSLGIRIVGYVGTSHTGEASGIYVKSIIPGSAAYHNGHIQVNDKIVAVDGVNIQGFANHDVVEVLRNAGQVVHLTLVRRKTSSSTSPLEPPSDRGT

HTRA3, P83110 = biological target: T6, HTRA3, P83110
T6 sequence (P83110 354-453, limits assumed, looked up): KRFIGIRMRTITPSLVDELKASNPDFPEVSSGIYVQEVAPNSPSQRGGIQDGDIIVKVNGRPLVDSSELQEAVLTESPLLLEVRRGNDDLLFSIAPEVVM

APBA3_1, O96018 = biological target: T7, APBA3_1, O96018
T7 sequence (O96018 389-490, limits assumed, looked up): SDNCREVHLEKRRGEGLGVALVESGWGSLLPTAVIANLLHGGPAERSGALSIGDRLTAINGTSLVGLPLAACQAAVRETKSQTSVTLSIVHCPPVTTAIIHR

FRMPD1, Q5SYB0 = biological target: T8, FRMPD1, Q5SYB0
T8 sequence (Q5SYB0 52-145, limits assumed, looked up): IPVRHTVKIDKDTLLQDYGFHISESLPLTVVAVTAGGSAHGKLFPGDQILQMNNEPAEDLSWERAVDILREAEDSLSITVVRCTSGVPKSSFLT

LNX1_2, Q8TBB1 = biological target: LNX1_2, Q8TBB1
Chain of LNX1_2, Q8TBB1 (Q8TBB1 371-470): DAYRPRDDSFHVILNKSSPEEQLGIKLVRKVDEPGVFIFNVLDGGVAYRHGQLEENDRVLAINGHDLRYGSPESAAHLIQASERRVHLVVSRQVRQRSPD

MAGI2_6, Q86UL8 = biological target: MAGI2_6, Q86UL8
Chain of MAGI2_6, Q86UL8 (Q86UL8 1141-1229): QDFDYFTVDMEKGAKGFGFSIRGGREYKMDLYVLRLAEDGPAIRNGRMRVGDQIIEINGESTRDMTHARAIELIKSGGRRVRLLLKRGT

LIMK2, P53671 = biological target: LIMK2, P53671
Chain of LIMK2, P53671 (P53671 143-248): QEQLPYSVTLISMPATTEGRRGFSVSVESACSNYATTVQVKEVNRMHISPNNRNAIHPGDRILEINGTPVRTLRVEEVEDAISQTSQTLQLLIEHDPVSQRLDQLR

GRIP2_7, Q9C0E4 = biological target: GRIP2_7, Q9C0E4
Chain of GRIP2_7, Q9C0E4 (Q9C0E4 934-1023): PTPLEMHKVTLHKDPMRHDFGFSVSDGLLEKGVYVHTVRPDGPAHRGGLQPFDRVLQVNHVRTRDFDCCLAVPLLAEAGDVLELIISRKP

PDZD7_3, Q9H5P4 = biological target: T9, PDZD7_3, Q9H5P4
T9 sequence (Q9H5P4 857-944, limits assumed, looked up): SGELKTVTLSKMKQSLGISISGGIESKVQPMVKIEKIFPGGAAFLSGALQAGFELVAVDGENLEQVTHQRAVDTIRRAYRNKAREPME

PDZD2_2, O15018 = biological target: T10, PDZD2_2, O15018
T10 sequence (O15018 329-429, limits assumed, looked up): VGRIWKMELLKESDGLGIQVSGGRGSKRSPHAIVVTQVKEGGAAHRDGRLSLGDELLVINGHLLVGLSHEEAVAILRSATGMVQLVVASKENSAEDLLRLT

SNTG2, Q9NY99 = biological target: T11, SNTG2, Q9NY99
T11 sequence (Q9NY99 68-166, limits assumed, looked up): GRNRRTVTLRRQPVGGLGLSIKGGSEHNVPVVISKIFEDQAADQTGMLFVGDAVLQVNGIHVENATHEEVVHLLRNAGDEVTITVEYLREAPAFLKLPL

[1] = plain residues with an end cap or a label only (N-terminal biotin on a linker: gsgsgs; C-terminal amide)
[2] = plain residues with an end cap or a label only (N-terminal biotin on a linker: ahx)

Chain of NHERF4_4, Q86UT5 (Q86UT5 464-550): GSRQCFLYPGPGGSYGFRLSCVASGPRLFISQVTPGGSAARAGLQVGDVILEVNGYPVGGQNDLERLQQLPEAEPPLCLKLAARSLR

Q: Which results are given for ELIQDTSTSFSTTREW [ARAP3_int, Q8WWN8]?
A: pKd (NHERF4_4, Q86UT5; [1]): 3.55; pKd (GRIP1_5, Q9Y3R0; [1]): below the threshold; pKd (DLG3_2, Q92796; [1]): 4.16; pKd (GORASP1, Q9BQQ3; [1]): below the threshold; pKd (MAGI2_2, Q86UL8; [1]): below the threshold; pKd (TJP3_3, O95049; [1]): below the threshold; pKd (Inadl_5, Q8NI35; [1]): below the threshold; pKd (HTRA1, Q92743; [1]): below the threshold; pKd (SIPA1L2, Q9P2F8; [1]): below the threshold; pKd (HTRA2, O43464; [1]): below the threshold; pKd (FRMPD2_3, Q68DX3; [1]): below the threshold; pKd (GRIP1_4, Q9Y3R0; [1]): below the threshold; pKd (TJP1_3, Q07157; [1]): below the threshold; pKd (FRMPD4, Q14CM0; [1]): below the threshold; pKd (IL16_3, Q14005; [1]): below the threshold; pKd (Inadl_3, Q8NI35; [1]): below the threshold; pKd (HTRA3, P83110; [1]): below the threshold; pKd (APBA3_1, O96018; [1]): below the threshold; pKd (FRMPD1, Q5SYB0; [1]): below the threshold; pKd (LNX1_2, Q8TBB1; [1]): below the threshold; pKd (MAGI2_6, Q86UL8; [1]): below the threshold; pKd (LIMK2, P53671; [1]): below the threshold; pKd (GRIP2_7, Q9C0E4; [1]): below the threshold; pKd (PDZD7_3, Q9H5P4; [1]): below the threshold; pKd (PDZD2_2, O15018; [1]): below the threshold; pKd (SNTG2, Q9NY99; [1]): below the threshold

Q: Which pKd (NHERF4_4, Q86UT5; [2]) does the source give for QGRWDHETIV [TMEM215, Q68D42] here?
A: below the threshold

Q: And the pKd (GRIP1_5, Q9Y3R0; [2])?
A: 3.55

Q: And the pKd (DLG3_2, Q92796; [2])?
A: 4.8

Q: And the pKd (GORASP1, Q9BQQ3; [2])?
A: 4.15

Q: What about the pKd (MAGI2_2, Q86UL8; [2]) of the same binder?
A: 4.08

Q: And the pKd (TJP3_3, O95049; [2])?
A: 3.62

Q: What about the pKd (Inadl_5, Q8NI35; [2]) of the same binder?
A: 3.63

Q: And the pKd (HTRA1, Q92743; [2])?
A: 5

Q: And the pKd (SIPA1L2, Q9P2F8; [2])?
A: below the threshold

Q: What about the pKd (HTRA2, O43464; [2]) of the same binder?
A: 3.68

Q: And the pKd (FRMPD2_3, Q68DX3; [2])?
A: 3.97

Q: And the pKd (GRIP1_4, Q9Y3R0; [2])?
A: below the threshold

Q: What about the pKd (TJP1_3, Q07157; [2]) of the same binder?
A: below the threshold

Q: What about the pKd (FRMPD4, Q14CM0; [2]) of the same binder?
A: 3.6

Q: What about the pKd (IL16_3, Q14005; [2]) of the same binder?
A: below the threshold

Q: What about the pKd (Inadl_3, Q8NI35; [2]) of the same binder?
A: 4.42

Q: What about the pKd (HTRA3, P83110; [2]) of the same binder?
A: below the threshold

Q: And the pKd (APBA3_1, O96018; [2])?
A: below the threshold

Q: What about the pKd (FRMPD1, Q5SYB0; [2]) of the same binder?
A: below the threshold

Q: What about the pKd (LNX1_2, Q8TBB1; [2]) of the same binder?
A: 4.23

Q: And the pKd (MAGI2_6, Q86UL8; [2])?
A: 4.07

Q: And the pKd (LIMK2, P53671; [2])?
A: below the threshold

Q: And the pKd (GRIP2_7, Q9C0E4; [2])?
A: below the threshold

Q: And the pKd (PDZD7_3, Q9H5P4; [2])?
A: 4.97

Q: And the pKd (PDZD2_2, O15018; [2])?
A: 4.69

Q: What about the pKd (SNTG2, Q9NY99; [2]) of the same binder?
A: 4.58
